Target: K63-linked tetraubiquitin (UniProt P0CG48 1-76, G76 to K63 isopeptide bonds between adjacent ubiquitins)
Assay: ITC

Kd: 2100 nM
B1: ASCC2 CUE domain (construct of the ITC experiments of Figure 2) (domain or fragment)
chain: AAVGPAMCGVELDSLISQVKDLLPDLGEGFILACLEYYHYDPEQVINNILEERLAPTLSQLDRNLDREM

— article PMC8800115 (2021)
